Biological target: T1, GST-tagged GFA1 (GST-GFA1) (Arabidopsis, UniProt Q9LNC5 1-987)
T1 construct: GAMETOPHYTIC FACTOR 1 (GFA1), Arabidopsis, full-length cDNA in pGEX-4T-1; also called pGEX-4T-GFA1; source: E. coli BL21 (DE3), purified (glutathione-Sepharose 4B)
T1 sequence (looked up): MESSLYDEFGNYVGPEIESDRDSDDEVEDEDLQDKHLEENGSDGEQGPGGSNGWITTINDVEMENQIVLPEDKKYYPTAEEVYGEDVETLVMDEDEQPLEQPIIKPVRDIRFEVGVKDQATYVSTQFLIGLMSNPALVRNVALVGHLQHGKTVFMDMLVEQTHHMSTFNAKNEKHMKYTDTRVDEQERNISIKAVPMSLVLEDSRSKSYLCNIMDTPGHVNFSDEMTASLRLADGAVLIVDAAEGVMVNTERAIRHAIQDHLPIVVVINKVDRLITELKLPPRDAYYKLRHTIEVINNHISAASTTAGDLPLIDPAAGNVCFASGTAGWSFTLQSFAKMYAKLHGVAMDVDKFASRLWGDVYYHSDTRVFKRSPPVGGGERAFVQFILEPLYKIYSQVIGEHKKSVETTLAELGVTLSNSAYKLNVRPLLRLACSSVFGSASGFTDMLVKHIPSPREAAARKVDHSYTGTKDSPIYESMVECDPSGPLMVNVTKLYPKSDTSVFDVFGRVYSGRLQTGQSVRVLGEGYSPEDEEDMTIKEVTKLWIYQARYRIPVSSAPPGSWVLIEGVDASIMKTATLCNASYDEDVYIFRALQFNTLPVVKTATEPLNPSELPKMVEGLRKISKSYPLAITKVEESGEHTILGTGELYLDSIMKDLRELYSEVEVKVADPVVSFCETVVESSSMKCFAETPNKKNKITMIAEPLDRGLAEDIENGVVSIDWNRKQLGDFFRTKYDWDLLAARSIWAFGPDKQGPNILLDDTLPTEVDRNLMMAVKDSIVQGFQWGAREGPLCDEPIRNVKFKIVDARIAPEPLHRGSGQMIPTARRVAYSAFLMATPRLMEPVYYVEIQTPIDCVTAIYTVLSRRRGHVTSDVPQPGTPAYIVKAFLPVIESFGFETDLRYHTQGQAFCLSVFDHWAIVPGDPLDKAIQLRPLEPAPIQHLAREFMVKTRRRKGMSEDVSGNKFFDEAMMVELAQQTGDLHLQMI
Assay: pull-down; GST or GST-GFA1 on glutathione-Sepharose 4B beads, His-RID1 added, 4 °C 1–2 h; 50mM Tris-HCl pH 7.5, 100mM NaCl; wash with 150mM NaCl, 25mM imidazole; immunoblot with anti-HIS antibody
Conditions: both partners purified

binding result: binds
B1: hexa-histidine-tagged RID1 (His-RID1) (natural protein, Arabidopsis, UniProt F4IE66 1-717, looked up)
chain: MPSMAQGELKSFVQNSRPNPKSPTVSPFSMRQKIAEHRRSLPIASVEKRLVEEVQKNDILIIVGETGSGKTTQLPQFLYNAGFCREGKMIGITQPRRIAAVTVAKRVAEECEVQLGQKVGYSIRFDDTTSGSTRLKYMTDGLLLREALLDPHLSRYSVIIVDEAHDRSVHTDVLLALLKKIQRTRSQPVSEKTEFGNVASQVQTTTRDANGPQQNGVLKGYQGRKLSPLKLIIMSASLDARVFSEYFGGAKAVHVQGRQFPVDILYTVHPESDYVDATLVTIFQIHFEEKPGDILVFLTGQDEIESVERLVQERLQNIPEDKRKLLPLAIFSALPSEQQMKVFAPAPTGFRKVILATNIAETSITIPGIRYVIDPGFVKARSYDPSKGMESLDVVPASKAQTLQRSGRAGREGPGKSFRLYPEREFEKLEDSTKPEIKRCNLSNIILQLKALGIDDIVGFDFIDKPSRGAIIKALAELHSLGALADDGKLENPVGYQMSRLPLEPVYSKALILANQFNCLEEMLITVAVLSVESIFYDPREKREEARTSKNHFASVEGDHLTYLSVYRESDEFLEKRKAAGSGNNIDKIMKKWCKENYVNSRSLKHARDIYRQIREHVEQIGFNVSSCGNDMLAFRRCLAASFFLKAAQRQLDGTYRALESGEVVHIHPTSVLFRAKPECVIFNELMQTSKKYIKNLTIIDSLWLSELAPHHFQTAE
notes: ROOT INITIATION … 1 (RID1), Arabidopsis, At1g26370, full-length cDNA in pET-28a-c(+); also called pET-28a-RID1; source: E. coli BL21 (DE3), purified (Ni Sepharose 6 Fast Flow)

From paper PMC5066494, “Interaction between RNA helicase ROOT INITIATION DEFECTIVE 1 and GAMETOPHYTIC FACTOR 1 is involved in female gametophyte development in Arabidopsis” (Journal of Experimental Botany, 2016)
